Test results as given in US7560106B2, “Rationally designed heparinases derived from heparinase I and II and methods of sequencing therewith” (Massachusetts Institute of Technology, priority 1998, dated 2009).
Changes are numbered by the printed parent chain. Numbers in names are those of the source.

How the values were obtained:
[1] = biological target: T1, heparinase I (Pedobacter heparinus, UniProt Q05819); test: Effect of lanthanides on heparinase I activity (232 nm assay); assay type: biochemical, Flavobacterium heparinum; conditions: 15 minutes preincubation; 4 mg/mL heparin, 5 mM calcium, pH 6.5
[2] = biological target: T1, heparinase I; assay type: binding, Flavobacterium heparinum
[3] = biological target: T1, heparinase I; assay type: biochemical, Flavobacterium heparinum; conditions: 30 minutes preincubation, 50 μM WRK, pH 7
[4] = Heparinase I activity as a function of calcium concentration (K0.5, calcium dependence); assay type: biochemical
Method in brief: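 Heparinase I mutant activity was measured by UV absorbance at 232 nm in 100 mM MOPS, pH 7.0, with calcium varied from 0 to 10 mM. Activity is given as IU (μmol product/min) using ε=−3800 M^−1cm^−1.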

[5] = Processivity of heparinase I on heparin; assay type: biochemical
[6] = absence of calcium; shown previously; cited from earlier work
[7] = Exhaustive digest and HPLC analysis of saccharide products of heparinase II and mutants, heparin substrate; conditions: exhaustive digest 18 hours at 30° C.
Description: HPLC Analysis of Saccharide Products of Heparinase II Activity. Heparin or heparan sulfate was degraded by heparinase II or one of the recombinant heparinases for 18 h at 30° C. The reaction was stopped by boiling and the samples were injected onto a POROS Q/M (4.6×100 mm) anion-exchange column connected to a BIOCAD system (PerSeptive Biosystems, Framingham, Mass.) (Godavarti, R., and Sasisekharan, R (1996c) Biochem. Biophys. Res. Comm. 229, 770-777). A salt gradient of 0-2 M NaCI in 10 mM Tris pH 7.0 was run and products were monitored at 232 nm.
Exhaustive digests of both 4 mg/ml heparin and 2 mg/ml heparan sulfate were completed and the resulting products analyzed with a Perfusion Chromatography system in a fashion similar to the analysis completed for heparinase I (Godavarti, R., and Sasisekharan, R (1996c) Biochem. Biophys. Res. Comm. 229, 770-777). Running buffer used as 10 mM Tris, pH 7.0 and the salt gradient was 0-2 M NaCl over the course of ten minutes.
After purification, each of these four wild-type and mutant enzymes was characterized via exhaustive (i.e., 18 hours at 30° C.) substrate digests to determine product profiles. Perfusion chromatography profiles of the desaccharide products of the three cysteine mutants and the r-heparinase II were analyzed using either heparin and heparan sulfate as the substrate.

## [Lu+3] [Lu^3+, lutetium]
[1]
  IC50: 212 µM

## [Ca+2] [calcium]
[2]
  calcium concentration sufficient to compete with terbium for binding to heparinase I: 2 mM
[3]
  K0.5 of protection from WRK-mediated inactivation: 980 µM

## [Tb+3] [terbium]
[2]
  terbium equivalents at which fluorescence intensity stops increasing: 10 equivalents
[1]
  IC50: 39 µM

B1: heparinase I: 42,500 Da enzyme from the periplasm of F. heparinum that degrades heparin-like glycosaminoglycans (protein, listed as Flavobacterium heparinum)
chain: MKKQILYLIVLQQLFLCSAYAQQKKSGNIPYRVNVQADSAKQKAIIDNKWVAVGINKPYALQYDDKLRFNGKPSYRFELKAEDNSLEGYAAGETKGRTELSYSYATTNDFKKFPPSVYQNAQKLKTVYHYGKGICEQGSSRSYTFSVYIPSSFPDNATTIFAQWHGAPSRTLVATPEGEIKTLSIEEFLALYDRMIFKKNIAHDKVEKKDKDGKITYVAGKPNGWKVEQGGYPTLAFGFSKGYFYIKANSDRQWLTDKADRNNANPENSEVMKPYSSEYKTSTIAYKMPFAQFPKDCWITFDVAIDWTKYGKEANTILKPGKLDVMMTYTKNKKPQKAHIVNQQEILIGRNDDDGYYFKFGIYRVGNSTVPVTYNLSGYSETAR
[4]
  activity in 2 mm Ca++ relative to absence of calcium: ~10 ×
  increase in activity upon introduction of millimolar concentrations of calcium: five-fold increase in activity
[5]
  processivity: ~90%
[6]
  salt concentration of elution from heparin-POROS column: around 500 mM

B2: C189A: heparinase II cysteine to alanine mutant at position 189 (protein, UniProt C6XZB6 26-772, looked up, variant C189A)
Heparin and heparin-sulfate …: QTKADVVWKDVDGVSMPIPPKTHPRLYLREQQVPDLKNRMNDPKLKKVWADMIKMQEDWKPADIPEVKDFRFYFNQKGLTVRVELMALNYLMTKDPKVGREAITSIIDTLETATFKPAGDISRGIGLFMVTGAIVYDWCYDQLKPEEKTRFVKAFVRLAKMLEAGYPPVKDKSIVGHASEWMIMRDLLSVGIAIYDEFPEMYNLAAGRFFKEHLVARNWFYPSHNYHQGMSYLNVRFTNDLFALWILDRMGAGNVFNPGQQFILYDAIYKRRPDGQILAGGDVDYSRKKPKYYTMPALLAGSYYKDEYLNYEFLKDPNVEPHCKLFEFLWRDTQLGSRKPDDLPLSRYSGSPFGWMIARTGWGPESVIAEMKVNEYSFLNHQHQDAGAFQIYYKGPLAIDAGSYTGSSGGYNSPHNKNFFKRTIAHNSLLIYDPKETFSSSGYGGSDHTDFAANDGGQRLPGKGWIAPRDLKEMLAGDFRTGKILAQGFGPDNQTPDYTYLKGDITAAYSAKVKEVKRSFLFLNLKDAKVPAAMIVFDKVVASNPDFKKFWLLHSIEQPEIKGNQITIKRTKNGDSGMLVNTALLPDAANSNITSIGGKGKDFWVFGTNYTNDPKPGTDEALERGEWRVEITPKKAAAEDYYLNVIQIADNTQQKLHEVKRIDGDKVVGVQLADRIVTFSKTSETVDRPFGFSVVGKGTFKFVMTDLLPGTWQVLKDGKILYPALSAKGDDGALYFEGTEGTYRFLR
[7]
  degradation product profile, heparin substrate: closely matched those of both r-heparinase II and native heparinase II

B3: C348A: heparinase II cysteine to alanine mutant at position 348 (protein, UniProt C6XZB6 26-772, looked up, variant C348A)
Heparin and heparin-sulfate …: B2 Heparin and heparin-sulfate … with A164C, C323A
modifications: heparinase II
[7]
  degradation product profile, heparin substrate: completely inactive
